The source of these data is patent publication US20210269519A1 (University of Texas, published 2021).

Sequences and labels used below:
B1: UBX domain-containing protein 8 (UBXD8, known as FAF2) (other, UniProt Q96CS3 2-445, looked up)
chain: AAPEERDLTQEQTEKLLQFQDLTGIESMDQCRHTLEQHNWNIEAAVQDRLNEQEGVPSVFNPPPSRPLQVNTADHRIYSYVVSRPQPRGLLGWGYYLIMLPFRFTYYTILDIFRFALRFIRPDPRSRVTDPVGDIVSFMHSFEEKYGRAHPVFYQGTYSQALNDAKRELRFLLVYLHGDDHQDSDEFCRNTLCAPEVISLINTRMLFWACSTNKPEGYRVSQALRENTYPFLAMIMLKDRRMTVVGRLEGLIQPDDLINQLTFIMDANQTYLVSERLEREERNQTQVLRQQQDEAYLASLRADQEKERKKREERERKRRKEEEVQQQKLAEERRRQNLQEEKERKLECLPPEPSPDDPESVKIIFKLPNDSRVERRFHFSQSLTVIHDFLFSLKESPEKFQIEANFPRRVLPCIPSEEWPNPPTLQEAGLSHTEVLFVQDLTDE
notes: Identified by LC-MS/MS in the LMBR1L co-IP; also called FAF2 (UBXDB8)
B2: glycoprotein 78 (GP78; known as AMFR) (enzyme, UniProt Q9UKV5 1-643, looked up)
chain: MPLLFLERFPWPSLRTYTGLSGLALLGTIISAYRALSQPEAGPGEPDQLTASLQPEPPAPARPSAGGPRARDVAQYLLSDSLFVWVLVNTACCVLMLVAKLIQCIVFGPLRVSERQHLKDKFWNFIFYKFIFIFGVLNVQTVEEVVMWCLWFAGLVFLHLMVQLCKDRFEYLSFSPTTPMSSHGRVLSLLVAMLLSCCGLAAVCSITGYTHGMHTLAFMAAESLLVTVRTAHVILRYVIHLWDLNHEGTWEGKGTYVYYTDFVMELTLLSLDLMHHIHMLLFGNIWLSMASLVIFMQLRYLFHEVQRRIRRHKNYLRVVGNMEARFAVATPEELAVNNDDCAICWDSMQAARKLPCGHLFHNSCLRSWLEQDTSCPTCRMSLNIADNNRVREEHQGENLDENLVPVAAAEGRPRLNQHNHFFHFDGSRIASWLPSFSVEVMHTTNILGITQASNSQLNAMAHQIQEMFPQVPYHLVLQDLQLTRSVEITTDNILEGRIQVPFPTQRSDSIRPALNSPVERPSSDQEEGETSAQTERVPLDLSPRLEETLDFGEVEVEPSEVEDFEARGSRFSKSADERQRMLVQRKDELLQQARKRFLNKSSEDDAASESFLPSEGASSDPVTLRRRMLAAAAERRLQKQQTS
notes: Identified by LC-MS/MS in the LMBR1L co-IP; also called AMFR (GP78)
B3: ubiquitin associated domain containing 2 (UBAC2) (other, UniProt Q8NBM4 36-344, looked up)
chain: HCQKLFVYDLHAVKNDFQIWRLICGRIICLDLKDTFCSSLLIYNFRIFERRYGSRKFASFLLGSWVLSALFDFLLIEAMQYFFGITAASNLPSGFLAPVFALFVPFYCSIPRVQVAQILGPLSITNKTLIYILGLQLFTSGSYIWIVAISGLMSGLCYDSKMFQVHQVLCIPSWMAKFFSWTLEPIFSSSEPTSEARIGMGATLDIQRQQRMELLDRQLMFSQFAQGRRQRQQQGGMINWNRLFPPLRQRQNVNYQGGRQSEPAAPPLEVSEEQVARLMEMGFSRGDALEALRASNNDLNVATNFLLQH
notes: Identified by LC-MS/MS in the LMBR1L co-IP

One series deals with Flag tagged-human Lmbr1l (limb region 1 like, LMBR1L) (human) (UniProt Q6UX01). The experiment in a line: anti-FLAG co-IP from HEK293T lysate + LC-MS/MS, vs empty vector.
Consider NDUFA2 (from UniProt O43678 2-99), for which the Ratio h-LMBR1L/h-vector amounted to 107.

Turning to COPA (from UniProt P53621 1-1224), the Ratio h-LMBR1L/h-vector is 110.

In the case of “GANAB (from UniProt Q14697 29-944) (enzyme)”, the Ratio h-LMBR1L/h-vector was determined as 198.

TMEM33 (from UniProt P57088 2-247): the Ratio h-LMBR1L/h-vector came to 87.

With RPN1 (from UniProt P04843 24-607), the Ratio h-LMBR1L/h-vector worked out at 118.

Turning to PDCD6IP (from UniProt Q8WUM4 2-868), the Ratio h-LMBR1L/h-vector came out at 67.3.

Take AAAS (from UniProt F8VZ44 1-422): the Ratio h-LMBR1L/h-vector was 81.9.

As for IMMT, the Ratio h-LMBR1L/h-vector was 100.

As to SRP68 (from UniProt Q9UHB9 1-627), the Ratio h-LMBR1L/h-vector was determined as 198.

As for “USP9X (from UniProt Q93008 1-2554) (enzyme)”, the Ratio h-LMBR1L/h-vector came out at 51.6.

With SRPRB (from UniProt Q9Y5M8 1-271), the Ratio h-LMBR1L/h-vector was 231.

On to EIF4G1 (from UniProt E7EUU4 1-1560), for which the Ratio h-LMBR1L/h-vector is 58.1.

In the case of CKAP4 (from UniProt Q07065 1-602), the Ratio h-LMBR1L/h-vector was 79.5.

For the molecule MAGED1 (from UniProt Q9Y5V3 1-778), the Ratio h-LMBR1L/h-vector is 58.1.

As to GAPVD1 (from UniProt Q14C86 1-1478), the Ratio h-LMBR1L/h-vector amounted to 110.

“IARS (from UniProt J3KR24 1-1121) (enzyme)”: the Ratio h-LMBR1L/h-vector was 106.

As for TMEM209 (from UniProt Q96SK2 1-561), the Ratio h-LMBR1L/h-vector turned out to be 97.8.

“STT3A (from UniProt P46977 1-705) (enzyme)”: the Ratio h-LMBR1L/h-vector was determined as 65.6.

On to NCAPD2 (from UniProt Q15021 1-1401), for which the Ratio h-LMBR1L/h-vector was determined as 169.

PTPLAD1: the Ratio h-LMBR1L/h-vector stood at 87.6.

As to FKBP8 (from UniProt Q14318 1-413), the Ratio h-LMBR1L/h-vector is 87.6.

A further series deals with T1, Flag tagged-human Lmbr1l (limb region 1 like, LMBR1L) (human, UniProt Q6UX01 1-489).
T1 construct: It carries a Flag tag; also called h-LMBR1L; LIMR
T1 sequence: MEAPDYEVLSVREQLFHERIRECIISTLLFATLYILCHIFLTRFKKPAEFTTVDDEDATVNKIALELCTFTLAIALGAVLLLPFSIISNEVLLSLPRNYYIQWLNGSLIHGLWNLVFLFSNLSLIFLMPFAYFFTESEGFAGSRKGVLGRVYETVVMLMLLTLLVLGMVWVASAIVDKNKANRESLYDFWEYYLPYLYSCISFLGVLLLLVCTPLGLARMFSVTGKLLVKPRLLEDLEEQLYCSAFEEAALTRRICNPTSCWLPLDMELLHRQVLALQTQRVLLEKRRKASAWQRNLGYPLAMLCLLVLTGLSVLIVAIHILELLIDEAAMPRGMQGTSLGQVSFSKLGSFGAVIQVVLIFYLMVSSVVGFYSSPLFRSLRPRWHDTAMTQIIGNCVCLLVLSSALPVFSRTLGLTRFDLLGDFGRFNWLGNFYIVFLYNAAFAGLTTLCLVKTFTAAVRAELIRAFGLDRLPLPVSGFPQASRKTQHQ
Described as above. How it is done: We sought to understand the immune function of LMBRL1 by identifying LMBR1L-interacting proteins using co-immunoprecipitation (co-IP) combined with mass spectrometry (MS) analysis. Among the 1,623 candidate proteins identified as putative LMBR1L interactors (Dataset S1), 25 proteins were >50-fold more abundant in the LMBR1L co-IP product relative to empty vector control (Table 1).
Co-immunoprecipitation and mass spectrometry were performed to identify Lmbr1l-interacting proteins as described below. Transfection was performed in HEK293T cells (ATCC) using Lipofectamine 2000 reagent (Life technologies) with plasmid encoding Flag tagged-human Lmbr1l or empty vector control. Forty-eight hours after transfection, cells were harvested in NP-40 lysis buffer for 45 min at 4° C. […] The proteins were eluted with SDS sample buffer and heated at 95° C. for 10 min. Lysates were loaded onto 12% (wt/vol) SDS-PAGE gel and run 1 cm into the separation gel. The gel was stained with Coomassie blue (Thermo Fisher) and whole stained lanes were subjected to mass spectrometry analysis (LCMS/MS) as described previously (33).
For the molecule B1, the “Ratio h-LMBR1L/h-vector” value came out at 71.2 ratio.

As to B2, the “Ratio h-LMBR1L/h-vector” value was found to be 51.7 ratio.

Turning to B3, the “Ratio h-LMBR1L/h-vector” value stood at 297 ratio.

The target of another series is T2, FLAG-tagged β-catenin.
T2 chain: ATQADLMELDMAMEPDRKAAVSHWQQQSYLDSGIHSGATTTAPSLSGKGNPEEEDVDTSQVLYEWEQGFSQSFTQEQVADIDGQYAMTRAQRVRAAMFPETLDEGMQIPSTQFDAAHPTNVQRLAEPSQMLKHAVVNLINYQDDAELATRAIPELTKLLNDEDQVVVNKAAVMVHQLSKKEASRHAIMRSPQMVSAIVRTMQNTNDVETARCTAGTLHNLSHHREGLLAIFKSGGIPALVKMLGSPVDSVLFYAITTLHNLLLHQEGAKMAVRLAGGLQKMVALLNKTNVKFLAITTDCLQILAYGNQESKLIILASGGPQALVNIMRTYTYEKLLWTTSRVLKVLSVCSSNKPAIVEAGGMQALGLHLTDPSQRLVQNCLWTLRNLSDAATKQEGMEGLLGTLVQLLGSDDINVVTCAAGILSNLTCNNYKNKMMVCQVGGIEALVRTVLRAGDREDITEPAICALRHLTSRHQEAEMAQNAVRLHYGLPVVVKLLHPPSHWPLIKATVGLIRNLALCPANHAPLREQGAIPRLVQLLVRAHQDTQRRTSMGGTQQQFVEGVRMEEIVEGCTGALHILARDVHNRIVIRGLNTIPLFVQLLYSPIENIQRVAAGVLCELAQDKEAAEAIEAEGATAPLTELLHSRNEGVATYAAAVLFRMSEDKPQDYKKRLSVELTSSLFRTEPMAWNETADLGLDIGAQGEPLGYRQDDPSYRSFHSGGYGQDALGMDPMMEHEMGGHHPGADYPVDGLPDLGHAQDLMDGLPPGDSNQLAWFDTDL
Test: not given
As to B2, the “ubiquitination of β-catenin (anti-FLAG IP, anti-ubiquitin immunoblot)” value was “Co-expression of FLAG-tagged β-catenin and HA-tagged GP78 strongly promoted the ubiquitination of β-catenin”.
